# Measured values as given in paper doi:10.1101/2021.09.24.461759.
# Target: pre-fusion, protease-resistant, trimeric transmembrane (TM)-deleted spike (S) glycoprotein from SARS-CoV-2 (SARS-CoV-2 (Wuhan-Hu-1) | not stated)
# Assay: SEC + other: SDS-PAGE
substance,measurement,value
"pre-fusion, protease-resistant, trimeric transmembrane (TM)-deleted spike (S) glycoprotein from SARS-CoV-2",stoichiometry N,3
